Consider one substance from publication PMC6144824.

In this test the target is mitoribosome large subunit (mtLSU, 39S) (human (endogenous in HEK293T and 143B)). The experiment in a line: co-sedimentation.

In turn, “MTG1 (human mitochondrial ribosome assembly GTPase), endogenous (natural protein)” came in with a percent of total MTG1 co-sedimenting with mtLSU markers of 10%.
